According to patent publication CN102167743A (BAIMAIBO PHARMACEUTICAL CO LTD, dated 2011):

Target: T1, EGFR (UniProt P00533 25-645, limits assumed)
T1 construct: also called 表皮生长因子受体
Assay: not described (summary of experimental results; compared with C225, 2F8 and 3C6)

- binding result: binds
B1: 全人源抗EGFR抗体15H8 (antibody, human IgG1, kappa, V domains shown)
VH: EVQLVESGGGLVQPGGSLRLSCAASGFTFSSYAMHWVRQAPGKGLEYVSAISSNGGSTYYANSVKGRFTISRDNSKNTLYLQMGSLRAEDMAVYYCAREGYSSSWYHNWFDSWGQGTLVTVSS
VL: DIVMTQTPLSLPVTPGEPASISCRSSQSLLDSDDGNTYLDWYLQKPGQSPQLLIYTLSYRASGVPDRFSGSGSGTDFTLKISRVEAEDVGVYYCMQRIEFPSLYTFGQGTKLEIKR
notes: Whole human antibody expressed in CHO-K1 and purified on Protein A. The expression genes carry a signal peptide, printed only as nucleotides; also called 15H8抗体; 全人源抗体15H8
